Measurements reported in US20220363752A1 (VERSEAU THERAPEUTICS, published 2022).
Changes are numbered by the printed parent chain. Primed or numbered codes have the meaning given here. Biotin′ = not defined here

T1: LRRC25(141-159) biotin peptide (human, not fully specified; N-terminal acetyl; C-terminal GGK-Biotin; native Cys changed to Ser)
T1 peptide: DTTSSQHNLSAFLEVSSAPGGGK

T2: LRRC25(36-55) biotin peptide (human, not fully specified; N-terminal NH2; C-terminal GGK-Biotin; native Cys changed to Ser)
T2 peptide: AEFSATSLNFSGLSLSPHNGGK

T3: LRRC25(66-85) biotin peptide (human, not fully specified; N-terminal acetyl; C-terminal GGK-Biotin)
T3 peptide: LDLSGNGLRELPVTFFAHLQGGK

T4: LRRC25(51-69) biotin peptide (human, not fully specified; N-terminal acetyl; C-terminal GGK-Biotin)
T4 peptide: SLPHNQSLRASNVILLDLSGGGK

T5: LRRC25(81-100) biotin peptide (human, not fully specified; N-terminal acetyl; C-terminal GGK-Biotin)
T5 peptide: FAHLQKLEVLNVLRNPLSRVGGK

T6: LRRC25(111-130) biotin peptide (human, not fully specified; N-terminal acetyl; C-terminal GGK-Biotin; native Cys changed to Ser)
T6 peptide: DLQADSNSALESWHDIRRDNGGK

T7: LRRC25(96-115) biotin peptide (human, not fully specified; N-terminal acetyl; C-terminal GGK-Biotin; native Cys changed to Ser)
T7 construct: also called Biotin LRRC25 (96-115) peptide
T7 peptide: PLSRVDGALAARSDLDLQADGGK

T8: LRRC25(21-40) biotin peptide (human, not fully specified; N-terminal NH2; C-terminal GGK-Biotin; native Cys changed to Ser)
T8 peptide: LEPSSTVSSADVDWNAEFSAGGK

T9: LRRC25(150-165) biotin peptide (human)
T9 peptide: Ac-SAFLEVSSAPGLASATGG-{Biotin′}

T10: LRRC25(126-145) biotin peptide (human, not fully specified; N-terminal acetyl; C-terminal GGK-Biotin; native Cys changed to Ser)
T10 peptide: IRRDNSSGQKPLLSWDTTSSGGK

B1: anti-LRRC25 chimeric antibody 1G08 (antibody, human IgG4, V domains shown)
VH: DVQLVESGGGLVKPGGSLKLSCAASGFTFSNYAMSWVRQTPEKRLEWVASISRGGNTYYPDSVKGRFTISRDNARNILYLQMSSLRSEDTAIYYCTRGNYGSSPFAYWGQGTLVTVSA
VL: DIVLTQSPASLAVSLGQRATISCRASESVDSYGNSFMHWYQQKPGQPPKLLIYLASNLESGVPARFSGSGSRTDFTLTIDPVEADDAATYYCQQNNEDPWTFGGGTKLEIKR
B2: anti-LRRC25 chimeric antibody 4A03 (antibody, human IgG4, V domains shown)
VH: B1 VH with Q3N, V5E, E6V, N31R, N56S, N73I, N76D, I92M, T96A, P104L
VL: DIVMTQAAFSNPVTLGTSASISCRSSKSLLHSNGITYLYWYLQKPGQSPQLLIYQMSNLASGVPDRFSSSGSGTDFTLRISRVEAEDVGVYYCAQNLELPFTFGSGTKLEIKR
B3: anti-LRRC25 chimeric antibody 3E01 (antibody, human IgG4, V domains shown)
VH: EEKLEESGGGLVKPGGSLKLSCAVSGFTLSSYAMSWVRQTPEKRLEWVASISRGGNTYYPDSVKGRFTISRDNGRNILNLQMSSLRSEDTAIYYCTRGGGSTMITSLFAYWGQGTLVTVSA
VL: B2 VL with S22F, F101Y, S105G
B4: anti-LRRC25 chimeric antibody 3C01 (antibody, human IgG4, V domains shown)
VH: B3 VH
VL: DIVMTQDAPSVPVTPGESVSISCRSSKSLLHSNGNTYLYWFLQRPGQSPQLLIYRMSNLASGVPDRFSGSGSGTAFTLRISRVEAEDVGVYYCMQHLEYPFTFGSGTKLEIKR
notes: also called ATCC PTA-126026
B5: anti-LRRC25 chimeric antibody 3F04 (antibody, human IgG4)
heavy: DVQLVESGGGLVKPGGSLKLSCAVSGFTLSSYAMSWVRQTPEKRLEWVASISRGGSTYYPDSVKGRFTISRDNGRNILNLQMSSLRSEDTAIYYCARGGGSTMITSLFAYWGQGTLVTVSAASTKGPSVFPLAPCSRSTSESTAALGCLVKDYFPEPVTVSWNSGALTSGVHTFPAVLQSSGLYSLSSVVTVPSSSLGTKTYTCNVDHKPSNTKVDKRVESKYGPPCPPCPAPEFLGGPSVFLFPPKPKDTLMISRTPEVTCVVVDVSQEDPEVQFNWYVDGVEVHNAKTKPREEQFNSTYRWSVLTVLHQDWLNGKEYKCKVSNKGLPSSIEKTISKAKGQPREPQVYTLPPSQEEMTKNQVSLTCLVKGFYPSDIAVEWESNGQPENNYKTTPPVLDSDGSFFLYSRLTVDKSRWQEGNVFSCSVMHEALHNHYTQKSLSLSLGK
light: DIVMTQDAFSNPVTLGTSASISCRSSKSLLHSNGITYLYWYLQKPGQSPQLLIYQMSNLASGVPDRFSSSGSGTDFTLRISRVEAEDVGVYYCAQNLELPFTFGSGTKLEIKRTVAAPSVFIFPPSDEQLKSGTASVVCLLNNFYPREAKVQWKVDNALQSGNSQESVTEQDSKDSTYSLSSTLTLSKADYEKHKVYACEVTHQGLSSPVTKSFNRGEC

Target: T1, LRRC25(141-159) biotin peptide
Assay: peptide ELISA
Procedure: (§1) To establish if functional chimera anti-LRRC25 antibodies recognize particular regions of LRRC25, ELISA experiments were performed using 10 plate-immobilized 16- to 20-mer overlapping LRRC25(ECD) biotin peptides (Table 7). Biotinylated human LRRC25-His served as a positive control. A typical ELISA was performed by coating overnight at 4° C., 3 ug/mL/25 ul per well of streptavidin (Jackson Immunoresearch, Cat. #016-030-084) in PBS in half-area high binding microtiter wells (Corning Cat. #3690). […] Biotin peptides or biotinylated human LRRC25-His protein were added in duplicate (2 ug/mL/25 ul per well) in assay buffer (blocking buffer containing 0.05% tween 20) and the plate incubated for 45 min at 37° C. The plate was washed as before, 20 nM anti-LRRC25 antibodies in assay buffer added in duplicate into appropriate wells, and the plate incubated as before. The plate was washed and HRP-conjugated secondary antibody in assay buffer added [25 ul per well; goat anti-human IgG (Jackson Immunoresearch, Cat. #715-035-150)], and incubated as before. Antibody bound to plate-immobilized peptide(s) or protein was determined at A450 nm using HRP substrate (3,3′,5,5′-tetramethylbenzidine (TMB); eBioscience; Cat. #00-4201-56); 100 μl/well).

binding result | Binder
no binding (tested: 20 nM) | B1
no binding (tested: 20 nM) | B2
no binding (tested: 20 nM) | B3
no binding (tested: 20 nM) | B4
no binding (tested: 20 nM) | B5

Target: T2, LRRC25(36-55) biotin peptide
Assay: peptide ELISA
Procedure: as §1

binding result | Binder
no binding (tested: 20 nM) | B1
no binding (tested: 20 nM) | B2
no binding (tested: 20 nM) | B3
no binding (tested: 20 nM) | B4
no binding (tested: 20 nM) | B5

Target: T3, LRRC25(66-85) biotin peptide
Assay: peptide ELISA
Procedure: as §1

binding result | Binder
no binding (tested: 20 nM) | B1
no binding (tested: 20 nM) | B2
no binding (tested: 20 nM) | B3
no binding (tested: 20 nM) | B4
no binding (tested: 20 nM) | B5

Target: T4, LRRC25(51-69) biotin peptide
Assay: peptide ELISA
Procedure: as §1

binding result | Binder
no binding (tested: 20 nM) | B1
no binding (tested: 20 nM) | B2
no binding (tested: 20 nM) | B3
no binding (tested: 20 nM) | B4
no binding (tested: 20 nM) | B5

Target: T5, LRRC25(81-100) biotin peptide
Assay: peptide ELISA
Procedure: as §1

binding result | Binder
no binding (tested: 20 nM) | B1
no binding (tested: 20 nM) | B2
no binding (tested: 20 nM) | B3
no binding (tested: 20 nM) | B4
no binding (tested: 20 nM) | B5

Target: T6, LRRC25(111-130) biotin peptide
Assay: peptide ELISA
Procedure: as §1

binding result | Binder
no binding (tested: 20 nM) | B1
no binding (tested: 20 nM) | B2
no binding (tested: 20 nM) | B3
no binding (tested: 20 nM) | B4
no binding (tested: 20 nM) | B5

Target: T7, LRRC25(96-115) biotin peptide
Assay: peptide ELISA
Procedure: as §1

binding result | Binder
no binding (tested: 20 nM) | B1
no binding (tested: 20 nM) | B2
no binding (tested: 20 nM) | B3
no binding (tested: 20 nM) | B4
no binding (tested: 20 nM) | B5

Target: T8, LRRC25(21-40) biotin peptide
Assay: peptide ELISA
Procedure: as §1

binding result | Binder
no binding (tested: 20 nM) | B1
no binding (tested: 20 nM) | B2
no binding (tested: 20 nM) | B3
no binding (tested: 20 nM) | B4
no binding (tested: 20 nM) | B5

Target: T9, LRRC25(150-165) biotin peptide
Assay: peptide ELISA
Procedure: as §1

binding result | Binder
no binding (tested: 20 nM) | B1
no binding (tested: 20 nM) | B2
no binding (tested: 20 nM) | B3
no binding (tested: 20 nM) | B4
no binding (tested: 20 nM) | B5

Target: T10, LRRC25(126-145) biotin peptide
Assay: peptide ELISA
Procedure: as §1

binding result | Binder
no binding (tested: 20 nM) | B1
no binding (tested: 20 nM) | B2
no binding (tested: 20 nM) | B3
no binding (tested: 20 nM) | B4
no binding (tested: 20 nM) | B5

Target: T7, LRRC25(96-115) biotin peptide
Assay: ELISA, 20 nM antibody, biotinylated antigen on streptavidin plate
Procedure: as §1

absorbance (A450) | Binder
0.099 | B1
0.11 | B2
0.11 | B3
0.079 | B4
0.156 | B5

The binders below were run against T11, biotinylated human LRRC25-His protein (human, UniProt Q8N386 21-165, biotinylated (sites not given)) in the same assay as above.
T11 construct: also called Biotin LRRC25-His; biotinylated LRRC25 protein
T11 sequence (Q8N386 other isoform, or with tags, fused parts or gaps): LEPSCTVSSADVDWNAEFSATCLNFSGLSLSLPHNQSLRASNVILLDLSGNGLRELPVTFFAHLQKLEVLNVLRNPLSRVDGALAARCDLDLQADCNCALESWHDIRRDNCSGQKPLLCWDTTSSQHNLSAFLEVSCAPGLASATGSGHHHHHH
Procedure: as §1

absorbance (A450) | Binder
0.324 | B1
0.251 | B2
0.341 | B3
0.354 | B4
0.324 | B5

These binders were tested against T12, His-tagged human LRRC25 extracellular domain protein, human LRRC25-His (human, UniProt Q8N386 21-165) (assay: ELISA, plate-immobilized antigen).
T12 construct: The entry holds the extracellular domain, a GSG linker and the His tag; also called LRRC25(ECD)-HIS
T12 sequence (Q8N386 other isoform, or with tags, fused parts or gaps): as above
Procedure: To establish the relative binding strengths of anti-LRRC25 antibodies against human LRRC25, and their cross-reactivity with cynomolgus monkey LRRC25, antibody binding curve analyses were performed and EC50 values against plate-immobilized recombinant human and cyno LRRC25 proteins were determined.
(§2) A typical ELISA was performed by coating overnight in PBS, pH 7.4, at 4° C. in high binding microtiter wells with 1 ug/mL/100 ul per well of human LRRC25-His or cyno LRRC25-His. An anti-human LRRC25 antibody (2A3, LS Bio, LS-C174039-100) and anti-HIS-HRP (Miltenyi Biotec; 130-092-783) served as coating controls for the human and cyno LRRC25 proteins, respectively. […] Anti-LRRC25 antibodies were added (100 ul per well) at 500 nM and serially diluted 3-fold in assay buffer (1% skimmed milk in PBS, pH 7.4). The plate was incubated with gentle agitation for 1 h at room temperature. The plate was washed 3× and HRP-conjugated secondary antibody in assay buffer added [100 ul per well; goat anti-human IgG (Jackson Immunoresearch, cat #715-035-150)], and the plate was incubated as before. Antibody bound to plate-immobilized LRRC25(ECD)-HIS was determined at A450 nm using HRP substrate (3,3′,5,5′-tetramethylbenzidine (TMB); eBioscience; 00-4201-56); 100 μl/well).

EC50 [nM] | Binder
3.2 | B1
~100 | B2
45.1 | B3
30.3 | B4
63 | B5

What follows are binders tested against T13, His-tagged cynomolgus monkey LRRC25 extracellular domain protein, cyno LRRC25-His (cynomolgus monkey) (assay: ELISA, plate-immobilized cyno LRRC25-His).
T13 construct: The entry holds the extracellular domain, a GSG linker and the His tag
T13 sequence (chain, as listed by the source limits assumed): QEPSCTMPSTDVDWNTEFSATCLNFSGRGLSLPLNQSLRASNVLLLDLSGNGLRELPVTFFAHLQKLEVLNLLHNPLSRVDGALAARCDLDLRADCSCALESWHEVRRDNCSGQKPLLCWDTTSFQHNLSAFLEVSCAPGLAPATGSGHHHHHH
Procedure: as §2

binding result | Binder
no binding (tested: 500 nM) | B1
no binding (tested: 500 nM) | B2
no binding (tested: 500 nM) | B3
no binding (tested: 500 nM) | B4
no binding (tested: 500 nM) | B5
